The results in this text go back to article PMC9668162.

This experiment concerns the target PAM1.4 Fab (human) (UniProt P01834). The experiment can be described thus: ELISA. For orientation: ELISA stands for enzyme-linked immunosorbent assay.

The Kd is the constant that tells how readily two partners part at equilibrium. As to “recombinant full-length VAR2CSA (variant FCR3), full ectodomain (domain or fragment)”, the Kd is 12 nM.
